How the values were obtained:
Aβ(1–40) fibrils = biological target: T1, Aβ(1–40) fibrils (Homo sapiens, UniProt P05067); assay: far-Western, overlay or dot blot; spot blot: 1–20 μg of each Aβ species (oligomers/intermediates or fibrils) on nitrocellulose, blocked with 2% BSA in TBST; 4 μg/ml B10AP or KW1AP in TBST for 1 h, room temperature; NBT/BCIP; densitometry; settings: both partners purified
T1 construct: β-amyloid peptide Aβ(1–40), the 40 amino acid isoform, cut product of the amyloid precursor protein; numbers count on: the Aβ peptide; Fibrillar assembly state; also called Aβ(1–40) amyloid fibrils; source: fibrils formed at 1 mg/ml in 50 mM sodium borate, pH 9.0, 5 days, room temperature

Aβ(1–42) fibrils = biological target: T2, Aβ(1–42) fibrils (Homo sapiens, UniProt P05067); assay: as above; settings: both partners purified
T2 construct: β-amyloid peptide Aβ(1–42), the 42 amino acid isoform, cut product of the amyloid precursor protein; numbers count on: the Aβ peptide; Fibrillar assembly state; also called Aβ(1–42) amyloid fibrils; source: synthetic peptide (Dr. Sven Rothemund, University Leipzig); fibrils formed at 1 mg/ml in 50 mM sodium borate, pH 9.0, 5 days, room temperature

Aβ(1–40) oligomers = biological target: T3, Aβ(1–40) oligomers (Homo sapiens, UniProt P05067); assay: as above; settings: both partners purified
T3 construct: β-amyloid peptide Aβ(1–40), the 40 amino acid isoform, cut product of the amyloid precursor protein; numbers count on: the Aβ peptide; Oligomeric assembly state; also called Aβ(1–40) intermediates; Aβ(1-40)-derived oligomers; source: oligomers prepared in 100% HFIP, diluted 10-fold with water, supernatant after 14,000 x g

[1] = biological target: T4, Aβ(1–40) expressed in Drosophila (KW1;Aβ40 flies) (Homo sapiens (expressed in Drosophila), UniProt P05067); assay: co-IP; head homogenates of 20-day old KW1;Aβ40 flies incubated with blocked protein A magnetic beads without antibody (fly KW1 binds the beads directly); PBS + 0.025% TritonX-100, room temperature; elution with 50 mM glycine pH 2.8; WB with 6E10 (Aβ) and anti-myc (KW1); settings: partners not purified
T4 construct: β-amyloid peptide Aβ(1–40); numbers count on: the Aβ peptide; Assembly state of the peptide in the fly homogenate is not defined; source: transgenic Drosophila melanogaster (Gal4-elav c155 driver, neuronal), in head homogenate of 20-day old flies

B1: B10AP (alkaline phosphatase coupled B10 antibody fragment) (VHH)
VHH: EVQLVESGGGLVQPGGSLRLSCTASGYTFSHRYHRWFRQAPGKEREIVAVISQSGMRTYYADSVKGRFTISRDNAKNTVYLQMNSLKPEDTAMYYCAAGTRKNVWTRQHPFDYWGQGTQVTVSS
notes: B10, phage display selected from a fully synthetic library of camelid heavy chain antibody fragments; crystal structure of B10 is PDB 3LN9; The introduction speaks of bivalent B10 in earlier work; also called AP coupled B10
Aβ(1–40) fibrils
  binding result: binds
Aβ(1–42) fibrils
  binding result: binds

B2: KW1AP (alkaline phosphatase coupled KW1 antibody fragment) (VHH)
VHH: EVQLVESGGGSVQPGGSLRLSCTASGYTFSQEFVIWFRQAPGKEREIVSGISLRKGWTYYADSVKGRFTISQDNAKNTVYLQMNNLKPEDTAMYYCAAAPTATHALYFDYWGQGTQVTVSS
notes: KW1, phage display selected from a fully synthetic library of camelid heavy chain antibody fragments; crystal structure of KW1 is PDB 3TPK; The introduction speaks of bivalent KW1 in earlier work; also called AP coupled KW1
Aβ(1–40) oligomers
  binding result: binds

B3: fly KW1 (myc-tagged KW1 antibody fragment expressed in Drosophila neurons) (VHH)
VHH: EVQLVESGGGSVQPGGSLRLSCTASGYTFSQEFVIWFRQAPGKEREIVSGISLRKGWTYYADSVKGRFTISQDNAKNTVYLQMNNLKPEDTAMYYCAAAPTATHALYFDYWGQGTQVTVSS
notes: KW1 as in m1; crystal structure PDB 3TPK; Expressed with an N-terminal secretion signal peptide (SSP) from the Drosophila necrotic gene; Band at ~17 kDa on anti-myc Western blot; source: transgenic Drosophila melanogaster (Gal4-elav c155 driver, neuronal), in head homogenate; not shown: myc, C-terminal, kept
[1]
  binding result: binds

— article PMC4029271, “Oligomer-targeting with a conformational antibody fragment promotes toxicity in Aβ-expressing flies” (Acta Neuropathologica Communications, 2014)
